In test [1] the target is T1, erythropoietin-producing hepatocellular (Eph) A2 receptor (UniProt P29317 24-976, limits assumed).
T1 construct: whole, on cells; Endogenous receptor on ovarian cancer cell lines
In words: flow cytometry on Hey cells, 0.8 mg/mL fluorescent nanogels, 4 h incubation; reference is SCR-labeled nanogels. Here is the method:
(§1) Flow cytometry. Hey cells were plated at 2.5×10⁵ cells/well in a 12-well, cell culture plate. Cells were allowed to adhere overnight in an incubator at 37° C. in a 5% CO₂ atmosphere. Cells were washed, and fresh medium was added containing YSA-pNIPMAm or SCR-pNIPMAm nanogels at a concentration of 0.8 mg/mL and incubated for four hours. Following incubation, the cells were washed with PBS and removed from the plate by Trypsin-EDTA treatment. The cells were washed with PBS and fixed with 2% (v/v) paraformaldehyde. Cells were analyzed using a LSR Flow Cytometer (BD Biosciences). Data analysis was carried out using FlowJo software.
On the technique in general: In flow cytometry, cells or beads pass a laser one at a time.

Test [2] has as its target T1, erythropoietin-producing hepatocellular …. Nature of the test: flow cytometry on Hey cells after 4 h incubation with fluorescent nanogels. On the procedure: as §1

T1 sequence (P29317 24-976 limits assumed): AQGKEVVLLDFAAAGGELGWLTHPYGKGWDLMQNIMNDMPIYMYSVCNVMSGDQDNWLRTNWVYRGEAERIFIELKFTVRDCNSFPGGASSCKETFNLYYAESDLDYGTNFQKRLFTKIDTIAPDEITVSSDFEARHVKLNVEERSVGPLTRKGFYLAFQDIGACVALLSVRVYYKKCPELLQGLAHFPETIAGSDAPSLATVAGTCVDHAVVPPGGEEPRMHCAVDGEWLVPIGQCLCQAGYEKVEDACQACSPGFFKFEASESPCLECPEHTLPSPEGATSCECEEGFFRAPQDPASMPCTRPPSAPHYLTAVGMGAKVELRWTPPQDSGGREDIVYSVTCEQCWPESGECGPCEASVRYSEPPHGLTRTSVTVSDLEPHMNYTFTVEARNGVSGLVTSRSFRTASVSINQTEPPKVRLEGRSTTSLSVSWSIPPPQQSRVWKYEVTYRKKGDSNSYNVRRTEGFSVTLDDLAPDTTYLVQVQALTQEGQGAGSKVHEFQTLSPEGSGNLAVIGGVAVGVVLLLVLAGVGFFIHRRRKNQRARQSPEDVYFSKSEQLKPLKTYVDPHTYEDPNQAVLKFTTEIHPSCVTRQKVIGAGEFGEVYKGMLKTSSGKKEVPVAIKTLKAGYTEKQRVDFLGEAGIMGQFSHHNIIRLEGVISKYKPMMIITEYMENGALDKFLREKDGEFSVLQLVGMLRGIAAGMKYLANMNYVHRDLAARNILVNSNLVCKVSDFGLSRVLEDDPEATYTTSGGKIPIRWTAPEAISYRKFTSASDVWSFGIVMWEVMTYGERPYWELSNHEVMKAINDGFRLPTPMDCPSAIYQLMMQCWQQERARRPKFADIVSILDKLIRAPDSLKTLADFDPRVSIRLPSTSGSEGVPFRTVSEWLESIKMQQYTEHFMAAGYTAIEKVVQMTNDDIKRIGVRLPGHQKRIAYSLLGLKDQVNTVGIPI

B1: YSA peptide (YSAYPDSVPMMSC) conjugated to core/shell pNIPMAm nanogels (peptide)
peptide: YSAYPDSVPMMSC
modifications: C-terminal cysteine coupled by maleimide (epsilon-maleimidocaproic acid, EMCA) to primary amines of the nanogel shell
notes: The peptide that was made and conjugated carries the C-terminal Cys; also called YSA-conjugated nanogels; YSA-pNIPMAm nanogels
As for B1, the “fold fluorescence relative to SCR-labeled nanogels” value in test [1] is approximately 10 fold.

B2: Scrambled (SCR) peptide (DYPSMAMYSPSVC) conjugated to core/shell pNIPMAm nanogels (peptide)
peptide: DYPSMAMYSPSVC
modifications: C-terminal cysteine coupled by maleimide (EMCA) to primary amines of the nanogel shell
notes: Control peptide with the same amino acid composition as YSA, tethered to the same nanogels; also called SCR-pNIPMAm nanogels; SCR-labeled nanogels
For B2, the binding result in test [2] is “no binding (tested: 0.8 mg/mL nanogels)”.

These data come from patent publication US20110091562A1 (GEORGIA TECH RESEARCH, published 2011).
